Data from publication PMC7943601, “Substrate-engaged type III secretion system structures reveal gating mechanism for unfolded protein translocation” (Nature Communications, 2021).

B1: SpaP (natural protein)
chain: MGNDISLIALLAFSTLLPFIIASGTCFVKFSIVFVMVRNALGLQQIPSNMTLNGVALLLSMFVMWPIMHDAYVYFEDEDVTFNDISSLSKHVDEGLDGYRDYLIKYSDRELVQFFENAQLKRQYGEETETVKRDKDEIEKPSIFALLPAYALSEIKSAFKIGFYLYLPFVVVDLVVSSVLLALGMMMMSPVTISTPIKLVLFVALDGWTLLSKGLILQYMDIAT
notes: SpaP, export apparatus protein of the S. enterica sv; Typhimurium injectisome; Five copies in the export apparatus (SpaP : Q : R 5 : 4 : 1); also called SpaP1-5; SpaP pentamer
B2: SpaR (natural protein)
chain: MFYALYFEIHHLVASAALGFARVAPIFFFLPFLNSGVLSGAPRNAIIILVALGVWPHALNEAPPFLSVAMIPLVLQEAAVGVMLGCLLSWPFWVMHALGCIIDNQRGATLSSSIDPANGIDTSEMANFLNMFAAVVYLQNGGLVTMVDVLNKSYQLCDPMNECTPSLPPLLTFINQVAQNALVLASPVVLVLLLSEVFLGLLSRFAPQMNAFAISLTVKSGIAVLIMLLYFSPVLPDNVLRLSFQATGLSSWFYERGATHVLE
notes: SpaR, export apparatus protein of the S. enterica sv; Typhimurium injectisome; One copy in the export apparatus
B6: InvG (natural protein)
chain: SEKIPVTGSGFVAKDDSLRTFFDAMALQLKEPVIVSKMAARKKITGNFEFHDPNALLEKLSLQLGLIWYFDGQAIYIYDASEMRNAVVSLRNVSLNEFNNFLKRSGLYNKNYPLRGDNRKGTFYVSGPPVYVDMVVNAATMMDKQNDGIELGRQKIGVMRLNNTFVGDRTYNLRDQKMVIPGIATAIERLLQGEEQPLGNIVSSEPPAMPAFSANGEKGKAANYAGGMSLQEALKQNAAAGNIKIVAYPDTNSLLVKGTAEQVHFIEMLVKALDVAKRHVELSLWIVDLNKSDLERLGTSWSGSITIGDKLGVSLNQSSISTLDGSRFIAAVNALEEKKQATVVSRPVLLTQENVPAIFDNNRTFYTKLIGERNVALEHVTYGTMIRVLPRFSADGQIEMSLDIEDGNDKTPQSDTTTSVDALPEVGRTLISTIARVPHGKSLLVGGYTRDANTDTVQSIPFLGKLPLIGSLFRYSSKNKSNVVRVFMIEPKEIVDPLTPDASESVNNILKQSGAWSGDDKLQKWVRVYLDRGQEAIK
notes: InvG, basal body ring protein (outer rings) of the S. enterica sv; Typhimurium injectisome; modelled as G34-I173 (lower OR) and E174-G557 (upper OR); Printed as InvG_(1-15/16); the upper outer ring was built in a C15-symmetrized map; also called InvG_(1-15/16); outer rings

Experiments:
Assay in all cases: cryo-EM structure
[1] = target: T1, PrgJ (S. enterica sv. Typhimurium (endogenous …, UniProt P41785 1-101)); details: both partners purified
T1 construct: PrgJ, inner rod protein of the S. enterica sv; Typhimurium injectisome; Six protomers form the inner rod; also called PrgJ1-6; inner rod protein
T1 sequence (P41785 whole entry): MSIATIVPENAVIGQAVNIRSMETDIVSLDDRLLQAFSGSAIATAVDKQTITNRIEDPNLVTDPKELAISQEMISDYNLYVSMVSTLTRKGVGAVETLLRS

[2] = target: the molecule itself
[3] = target: B2; details: both partners purified
[4] = target: B1; details: both partners purified
[5] = target: B6; details: both partners purified

## B1
[1]
  binding result: binds
[2]
  stoichiometry N: 5
[3]
  binding result: binds

## B2
[1]
  binding result: binds

B3: SpaQ (natural protein)
chain: MDDLVFAGNKALYLVLILSGWPTIVATIIGLLVGLFQTVTQLQEQTLPFGIKLLGVCLCLFLLSGWYGEVLLSYGRQVIFLALAKG
notes: also called SpaQ1-4
[2]
  stoichiometry N: 4
[3]
  binding result: binds
[4]
  binding result: binds

B4: PrgH (natural protein)
chain: METSKEKTITSPGPYIVRLLNSSLNGCEFPLLTGRTLFVVGQSDALTASGQLPDIPADSFFIPLDHGGVNFEIQVDTDATEIILHELKEGNSESRSVQLNTPIQVGELLILIRPESEPWVPEQPEKLETSAKKNEPRFKNGIVAALAGFFILGIGTVGTLWILNSPQRQAAELDSLLGQEKERFQVLPGRDKMLYVAAQNERDTLWARQVLARGDYDKNARVINENEENKRISIWLDTYYPQLAYYRIHFDEPRKPVFWLSRQRNTMSKKELEVLSQKLRALMPYADSVNITLMDDVTAAGQAEAGLKQQALPYSRRNHKGGVTFVIQGALDDVEILRARQFVDSYYRTWGGRYVQFAIELKDDWLKGRSFQYGAEGYIKMSPGHWYFPSPL
notes: PrgH, basal body ring protein of the S. enterica sv; Typhimurium injectisome; also called PrgH_(1-24); copies: 24
[2]
  stoichiometry N: 24

B5: PrgI (natural protein)
chain: MATPWSGYLDDVSAKFDTGVDNLQTQVTEALDKLAAKPSDPALLAAYQSKLSEYNLYRNAQSNTVKVFKDIDAAIIQNFR
notes: PrgI, needle filament protein of the S. enterica sv; Typhimurium injectisome; Helical filament; 72 subunits were modelled in the substrate-trapped map; also called PrgI_(1-72); needle filament protein
[1]
  binding result: binds
[5]
  binding result: binds
[2]
  binding result: binds
[4]
  binding result: binds

## B6
[1]
  binding result: binds

B7: PrgK (natural protein)
chain: CKDKDLLKGLDQEQANEVIAVLQMHNIEANKIDSGKLGYSITVAEPDFTAAVYWIKTYQLPPRPRVEIAQMFPADSLVSSPRAEKARLYSAIEQRLEQSLQTMEGVLSARVHISYDIDAGENGRPPKPVHLSALAVYERGSPLAHQISDIKRFLKNSFADVDYDNISVVLSERSDAQLQAPGTPVKRNSFATSWIVLIILLSVMSAGFGVWYYKNHYARNKKGITADDKAKSSNE
notes: PrgK, basal body ring protein of the S. enterica sv; Typhimurium injectisome; also called PrgK_(1-24); copies: 24
[2]
  stoichiometry N: 24
